We go through 1 substance from patent US20090252749A1.

This test concerns the target B7 protein on the antigen presenting cell (Daudi B cells). Kind of test: cell-based or functional assay.

“And” between values parts separate entries of the source, which are not always exact repeats. Identical values can stand only once.

Regarding CTLA4^A29YL104E-Ig (Fc fusion), the EC50 (ng/mL), human IL-2 promoter mediated luciferase activity is 19.1 ng/mL and 21.5 ng/mL and 21.8 ng/mL; the Lower Asymptote (CPS), human IL-2 promoter mediated luciferase activity is 27000 CPS and 30000 CPS and 29000 CPS; the Upper Asymptote (CPS), human IL-2 promoter mediated luciferase activity is 81000 CPS and 85000 CPS and 88000 CPS.
